The text below walks through data of US20240390468A1, “SURVIVIN AND MAGE-A9 DUAL-TARGETED IMMUNOTHERAPY” (IMMUNOVACCINE TECHNOLOGIES INC., priority 2022, published 2024).

Common to all, as to settings: remark: other sources report otherwise
Test [1] deals with MHC class 1 allele A*02:01. Kind of test: REVEAL R-score, HLA-A*02:01.
For test [2], the target named is MHC class 1 allele A*02:01. The test can be described thus: REVEAL kinetic score, HLA-A*02:01.
Test [3] concerns the target MHC class 1 allele A*02:01. Kind of test: REVEAL on-rate assay, HLA-A*02:01.
Test [4] deals with MHC class 1 allele A*02:01. Kind of test: REVEAL off-rate assay, HLA-A*02:01.
Test [5] deals with MHC class 1 allele A*02:01. Kind of test: REVEAL peptide-MHC binding assay, HLA-A*02:01.

B1: SurA24 (survivin peptide antigen HLA-A24, …) (peptide)
peptide: STFKNWPFL
B1 gave a R-score in test [1] of 0. For the same molecule, the Kinetic score in test [2] is 0. The same molecule came in with an On-rate T1/2 in test [3] of 31.5 h. This molecule also yielded an Off-rate T1/2 in test [4] of 7.2 min. In test [5], this molecule came in with an REVEAL score of 61.9.
